According to patent US20190055314A1 (ADAGENE, published 2019):

T1: full-length monkey CD137 on the cell surface (cynomolgus monkey, UniProt Q07011 24-179 (human entry))
T1 chain: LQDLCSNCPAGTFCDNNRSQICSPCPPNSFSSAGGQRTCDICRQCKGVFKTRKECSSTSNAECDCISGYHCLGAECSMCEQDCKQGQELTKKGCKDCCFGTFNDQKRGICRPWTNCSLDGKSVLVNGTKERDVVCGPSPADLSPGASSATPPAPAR

T2: full-length mouse CD137 on the cell surface (mouse, UniProt P20334 24-178)
T2 sequence: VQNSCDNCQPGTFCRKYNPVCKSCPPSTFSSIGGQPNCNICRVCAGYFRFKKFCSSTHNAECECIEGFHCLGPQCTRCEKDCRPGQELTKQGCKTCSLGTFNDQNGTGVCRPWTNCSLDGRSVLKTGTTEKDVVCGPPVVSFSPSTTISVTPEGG

T3: rat CD137 on the cell surface (rat, UniProt Q4W8J3 24-258)
T3 sequence: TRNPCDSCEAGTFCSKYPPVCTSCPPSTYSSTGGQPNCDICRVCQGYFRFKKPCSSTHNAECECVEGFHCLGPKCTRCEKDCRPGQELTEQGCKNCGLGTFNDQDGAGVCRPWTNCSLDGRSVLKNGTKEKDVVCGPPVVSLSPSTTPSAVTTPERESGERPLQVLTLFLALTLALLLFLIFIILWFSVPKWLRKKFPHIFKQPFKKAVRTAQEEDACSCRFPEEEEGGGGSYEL

T4: Hu_GTF34AAA (human, UniProt Q07011 18-255)
T4 construct: On HEK293F; also called GFT34AAA
T4 chain: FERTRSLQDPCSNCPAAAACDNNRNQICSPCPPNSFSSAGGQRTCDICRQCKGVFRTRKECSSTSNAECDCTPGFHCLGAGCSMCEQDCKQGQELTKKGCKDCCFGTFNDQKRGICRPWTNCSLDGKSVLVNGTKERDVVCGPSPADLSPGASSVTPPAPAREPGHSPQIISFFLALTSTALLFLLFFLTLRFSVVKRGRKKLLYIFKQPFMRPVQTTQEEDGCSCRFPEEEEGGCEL

T5: Hu_FSS53AAA (human, UniProt Q07011 18-255)
T5 construct: On HEK293F
T5 chain: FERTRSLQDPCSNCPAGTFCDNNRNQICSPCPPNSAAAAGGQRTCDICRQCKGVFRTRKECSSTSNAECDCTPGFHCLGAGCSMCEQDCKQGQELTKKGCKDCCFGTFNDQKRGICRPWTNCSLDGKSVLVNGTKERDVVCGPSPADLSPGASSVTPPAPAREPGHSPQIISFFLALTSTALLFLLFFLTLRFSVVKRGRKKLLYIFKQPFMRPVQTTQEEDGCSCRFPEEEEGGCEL

T6: mouse CD137 protein (Biacore) (mouse, UniProt P20334 24-178, limits assumed)
T6 construct: Construct used as SPR analyte not described
T6 sequence: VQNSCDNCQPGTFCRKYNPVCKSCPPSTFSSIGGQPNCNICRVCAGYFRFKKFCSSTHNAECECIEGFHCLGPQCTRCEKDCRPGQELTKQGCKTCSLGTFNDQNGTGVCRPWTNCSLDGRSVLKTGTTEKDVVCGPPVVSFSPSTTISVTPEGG


Legend:
[1] = target: T7, human CD137-His6 (Sino Biological #10041-H08H) (human, UniProt Q07011 24-186); test: SPR Biacore, IgG
T7 construct: Bought; also called human CD137 protein; not shown: His6 tag

[2] = target: T8, full-length human CD137 on the cell surface (human, UniProt Q07011 18-255); test: flow cytometry, HEK293F
T8 construct: also called Human WT

[3] = target: T1, full-length monkey CD137 on the cell …; test: flow cytometry, HEK293F
[4] = target: T2, full-length mouse CD137 on the cell …; test: flow cytometry, yeast display
[5] = target: T3, rat CD137 on the cell surface; test: flow cytometry, HEK293F cells expressing CD137 [Cont.]
[6] = target: T2, full-length mouse CD137 on the cell …; test: as above
Hu_GTF34AAA = target: T4, Hu_GTF34AAA; test: flow cytometry, HEK293F cells expressing CD137 or mutant [Cont.]
Hu_FSS53AAA = target: T5, Hu_FSS53AAA; test: as above
Hu_FH92AA = target: T9, Hu_FH92AA (human, UniProt Q07011 18-255); test: as above
T9 construct: On HEK293F

Hu_FN125AA = target: T10, Hu_FN125AA (human, UniProt Q07011 18-255); test: as above
T10 construct: On HEK293F

Hu_PW135AA = target: T11, Hu_PW135AA (human, UniProt Q07011 18-255); test: as above
T11 construct: On HEK293F

Hu_GT150AA = target: T12, Hu_GT150AA (human, UniProt Q07011 18-255); test: as above
T12 construct: On HEK293F

[7] = target: T1, full-length monkey CD137 on the cell …; test: flow cytometry, PMA/ionomycin-activated monkey T cells, antibody 100 nM
Hu_T35A = target: T13, Hu_T35A (human, UniProt Q07011 18-255); test: flow cytometry, HEK293F
T13 construct: On HEK293F; also called human CD137 T35A

Hu_R66A = target: T14, Hu_R66A (human, UniProt Q07011 18-255); test: flow cytometry, HEK293F
T14 construct: On HEK293F; also called human CD137 R66A

Hu_F72A = target: T15, Hu_F72A (human, UniProt Q07011 18-255); test: flow cytometry, HEK293F
T15 construct: On HEK293F; also called human CD137 F72A

Hu_N83A = target: T16, Hu_N83A (human, UniProt Q07011 18-255); test: flow cytometry, HEK293F
T16 construct: On HEK293F; also called human CD137 N83A

Hu_F92A = target: T17, Hu_F92A (human, UniProt Q07011 18-255); test: flow cytometry, HEK293F
T17 construct: On HEK293F; also called human CD137 F92A

[8] = target: T7, human CD137-His6 (Sino Biological …); test: SPR Biacore, IgG captured
[9] = target: T6, mouse CD137 protein (Biacore); test: SPR Biacore, IgG captured

T8 sequence (Q07011 18-255): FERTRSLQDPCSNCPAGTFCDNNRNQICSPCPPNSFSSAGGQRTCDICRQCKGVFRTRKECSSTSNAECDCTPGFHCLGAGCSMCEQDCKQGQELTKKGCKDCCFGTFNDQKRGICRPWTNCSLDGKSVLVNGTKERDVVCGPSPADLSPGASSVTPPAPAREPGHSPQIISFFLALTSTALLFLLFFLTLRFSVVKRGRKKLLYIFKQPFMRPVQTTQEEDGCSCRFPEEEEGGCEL
T12 sequence (Q07011 18-255 G150A/T151A): as the sequence (Q07011 18-255) above, with G133A, T134A counted along it
T10 sequence (Q07011 18-255 F125A/N126A): as the sequence (Q07011 18-255) above, with F108A, N109A counted along it
T11 sequence (Q07011 18-255 P135A/W136A): as the sequence (Q07011 18-255) above, with P118A, W119A counted along it
T15 sequence (Q07011 18-255 F72A): as the sequence (Q07011 18-255) above, with F55A counted along it
T13 sequence (Q07011 18-255 T35A): as the sequence (Q07011 18-255) above, with T18A counted along it
T16 sequence (Q07011 18-255 N83A): as the sequence (Q07011 18-255) above, with N66A counted along it

Binder | Kd [1] [nM] | koff [1] [s⁻¹] | kon [1] [M⁻¹ s⁻¹] | Kd [2] [nM] | Kd [3] [nM] | % in upper right quadrant [4] [%] | Mean [4] | Mean (Hu_GTF34AAA) | binding result (Hu_GTF34AAA) | Mean (Hu_FSS53AAA) | binding result (Hu_FSS53AAA) | binding result (Hu_FH92AA) | binding result (Hu_FN125AA) | Mean (Hu_PW135AA) | Mean (Hu_GT150AA) | % of cells positive for antibody binding [7] [%] | further results
AG10059 (antibody, human IgG4 S228P, kappa, V domains shown) VH: EVQLVESGGGLVQPGGSLRLSCAASGYSITSGHYWAWIRQAPGKGLEWVSSISGYGSTTYYADSVKGRFTISRDNSKNTLYLQLNSLRAEDTAVYYCARGGSDAVLGDWFAYWGQGTLVTVSS VL: DIQLTQSPSSLSASVGDRVTITCRASQGIGSFLAWYQQKPGKAPKLLIYDASNLETGVPSRFSGSGSGTDFTLTISSLQPEDFATYYCQQGYYLWTFGQGTKVEIKR | 38 | 0.0063 | 160000 | 5 | 2.6 | 0.44 | 9890 | 893 | no binding (tested: 100 nM (as in Example 5)) | 720 | no binding (tested: 100 nM (as in Example 5)) | no binding (tested: 100 nM (as in Example 5)) | binds | 31600 | 13300 | 8.1 | binding result [5]: no binding (tested: 100 nM (text paragraph 220)); binding result [6]: no binding (tested: 100 nM (text paragraph 220))
AG10058 (antibody, human IgG4 S228P, kappa, V domains shown) VH: EVQLVESGGGLVQPGGSLRLSCAASGFSLSTSGVGVGWIRQAPGKGLEWLALIDWDDDKYYSPSLKSRLTISRDNSKNTLYLQLNSLRAEDTAVYYCARGGSDTVLGDWFAYWGQGTLVTVSS VL: DIQLTQSPSSLSASVGDRVTITCRASQSVSPYLAWYQQKPGKAPKLLIYDASSLESGVPSRFSGSGSGTDFTLTISSLQPEDFATYYCQQGYSLWTFGQGTKVEIKR | 5.9 | 0.0024 | 410000 | 1.8 | 2 | 41.1 | 12600 | 878 | no binding (tested: 100 nM (as in Example 5)) | 778 | no binding (tested: 100 nM (as in Example 5)) | no binding (tested: 100 nM (as in Example 5)) | binds | 24300 | 12100 | 9.8 | binding result (Hu_T35A): no binding; binding result (Hu_R66A): no binding; binding result (Hu_F72A): no binding; binding result (Hu_N83A): no binding; binding result (Hu_F92A): no binding; Kd [8]: 5.9 nM; Kd [9]: 15.2 nM
